Results as given in patent US20120288507A1 (Amgen, published 2012).
Positions count from the first letter of the chain named.

Key:
[1] = target: T1, human WISE N112A (human, UniProt Q6X4U4 24-206); assay: capture ELISA, WISE mutant supernatant (FIG. 25)
T1 construct: Alanine mutant of loop 2, used as supernatant of transiently transfected mammalian cells
T1 chain: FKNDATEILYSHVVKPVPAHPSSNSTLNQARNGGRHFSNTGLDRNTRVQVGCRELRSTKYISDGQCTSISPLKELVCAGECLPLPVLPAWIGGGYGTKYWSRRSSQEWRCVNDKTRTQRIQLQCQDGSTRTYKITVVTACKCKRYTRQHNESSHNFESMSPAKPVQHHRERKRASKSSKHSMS
Experimental: (§1) Relative capture of individual WISE mutant proteins or wild type proteins by either neutralizing antibodies or non-neutralizing antibodies was compared to assess whether any of these single amino acid changes affects the binding of an antibody to WISE protein. The bound WISE proteins were then detected using HRP-conjugated affinity-purified polyclonal antibody against WISE.
(§2) Purified anti-WISE antibodies (0.5 ug/ml) were added onto high-binding ELISA plates pre-coated with 1 ug/ml of goat anti-mouse IgG Fc (Pierce). Plates were incubated for 1 hour in room temperature. Plates were then washed 4× with Wash Buffer. Subsequently alanine scanned WISE loop-2 mutant supernatants from transient transfection cultures (100× diluted) were added and incubated for 1 hour in room temperature. After 4× wash, rabbit anti-WISE Pab-biotin (50 ng/ml)+NeutrAvidin-HRP (Pierce, Cat #31001) were added onto the plates and incubated for 1 hour in room temperature. Plates were again washed 4× with Wash Buffer. Binding was analyzed using 1-Step Ultra TMB-ELISA substrate (Pierce; Cat #34028) according to the manufacturer's instructions.

[2] = target: T2, human WISE I114A (human, UniProt Q6X4U4 24-206); assay: capture ELISA, WISE mutant supernatant (FIG. 25)
T2 construct: Alanine mutant of loop 2, used as supernatant of transiently transfected mammalian cells
T2 chain: T1 chain with A89N, I91A
Experimental: as §1, §2

[3] = target: T3, human WISE G115A (human, UniProt Q6X4U4 24-206); assay: capture ELISA, WISE mutant supernatant (FIG. 25)
T3 construct: Alanine mutant of loop 2, used as supernatant of transiently transfected mammalian cells
T3 chain: T1 chain with A89N, G92A
Experimental: as §1, §2

[4] = target: T4, human WISE K121A (human, UniProt Q6X4U4 24-206); assay: capture ELISA, WISE mutant supernatant (FIG. 25)
T4 construct: Alanine mutant of loop 2, used as supernatant of transiently transfected mammalian cells
T4 chain: T1 chain with A89N, K98A
Experimental: as §1, §2

[5] = target: T5, human WISE (human, UniProt Q6X4U4 24-206); assay: murine hybridoma antibodies; assay not given
T5 construct: Recombinant protein secreted from mammalian cells; also called hWISE; huWISE
T5 sequence: T1 chain with A89N

[6] = target: T5, human WISE; assay: capture ELISA binding profile (FIG. 26)
Experimental: as §1, §2

[7] = target: T1, human WISE N112A; assay: capture ELISA, WISE mutant supernatant (FIG. 26)
Experimental: as §1, §2

[8] = target: T2, human WISE I114A; assay: capture ELISA, WISE mutant supernatant (FIG. 26)
Experimental: as §1, §2

[9] = target: T6, human WISE L110A (human, UniProt Q6X4U4 24-206); assay: capture ELISA, WISE mutant supernatant (FIG. 27)
T6 construct: Alanine mutant of loop 2, used as supernatant of transiently transfected mammalian cells
T6 chain: T1 chain with L87A, A89N
Experimental: as §1, §2

[10] = target: T1, human WISE N112A; assay: capture ELISA, WISE mutant supernatant (FIG. 27)
Experimental: as §1, §2

[11] = target: T7, human WISE G117A (human, UniProt Q6X4U4 24-206); assay: capture ELISA, WISE mutant supernatant (FIG. 27)
T7 construct: Alanine mutant of loop 2, used as supernatant of transiently transfected mammalian cells
T7 chain: T1 chain with A89N, G94A
Experimental: as §1, §2

[12] = target: T5, human WISE; assay: capture ELISA binding profile (FIG. 28)
Experimental: as §1, §2

[13] = target: T6, human WISE L110A; assay: capture ELISA, WISE mutant supernatant (FIG. 28)
Experimental: as §1, §2

[14] = target: T1, human WISE N112A; assay: capture ELISA, WISE mutant supernatant (FIG. 28)
Experimental: as §1, §2

[15] = target: T7, human WISE G117A; assay: capture ELISA, WISE mutant supernatant (FIG. 28)
Experimental: as §1, §2

[16] = target: T5, human WISE; assay: capture ELISA binding profile (FIG. 22)
Experimental: as §1, §2

[17] = target: T2, human WISE I114A; assay: capture ELISA, WISE mutant supernatant (FIG. 22)
Experimental: as §1, §2

[18] = target: T4, human WISE K121A; assay: capture ELISA, WISE mutant supernatant (FIG. 22)
Experimental: as §1, §2

[19] = target: T5, human WISE; assay: capture ELISA binding profile (FIG. 23)
Experimental: as §1, §2

[20] = target: T3, human WISE G115A; assay: capture ELISA, WISE mutant supernatant (FIG. 23)
Experimental: as §1, §2

[21] = target: T7, human WISE G117A; assay: capture ELISA, WISE mutant supernatant (FIG. 23)
Experimental: as §1, §2

[22] = target: T5, human WISE; assay: capture ELISA binding profile (FIG. 24)
Experimental: as §1, §2

[23] = target: T3, human WISE G115A; assay: capture ELISA, WISE mutant supernatant (FIG. 24)
Experimental: as §1, §2

[24] = target: T7, human WISE G117A; assay: capture ELISA, WISE mutant supernatant (FIG. 24)
Experimental: as §1, §2

B1: Ab-AA (antibody, V domains shown)
VH: EVQLQQSGAELVRSGASVKLSCTASGFNIKDYYIHWMKQRPEQGLEWIGWIDPENGDTESAPKFQGKATMTADTSSNTAYLHLSSLTFEDTAVYYCNAEGYGSRHWYFDVWGAGTTVTVSS
VL: DIVMSQSPSSLAVSAGEKVTMSCKSSQSLLNSRTRKNYLAWYQQKPGQSPKLLIYWASTRQSGVPDRFTGSGSGTDFTLTISSVQAEDLAVYYCKQSYNLLTFGAGTKLELK
notes: Murine monoclonal antibody purified from hybridoma; also called WISE Loop 2 Mab (Ab-AA)
- binding result [1]: binds
- binding result [2]: binds
- binding result [3]: binds
- binding result [4]: binds
- binding result [5]: binds

B2: Ab-AH (antibody, V domains shown)
VH: B1 VH with K19R, Y32F, I34M, M37L, H82Q, F88S, Y95C, G102D, S103N, R104S
VL: B1 VL with Q61K, T69I, L101V
notes: Murine anti-WISE monoclonal antibody; also called WISE Loop 2 Mab (Ab-AH)
- binding result [6]: binds
- binding result [7]: binds
- binding result [8]: binds

B3: Ab-AJ (antibody, V domains shown)
VH: EVQLQQSGAELVRSGASVKLSCTASGFNIKDYYMHWVKQRPEQGLEWIGWIDPENGDTEYAPKFQGKATMTADTSSNTAYLQLSSLTSEDTAVYYCNFYDVYSEGALDYWGQGTSVTVSS
VL: B1 VL with Q61E, L101P, A105G, L111I
notes: Murine anti-WISE monoclonal antibody; also called WISE Loop 2 Mab (Ab-AJ)
- absorbance [9]: ≤ 1.5 absorbance
- absorbance [10]: ≤ 1.5 absorbance
- absorbance [11]: ≤ 1.5 absorbance

B4: Ab-AF (antibody, V domains shown)
VH: QIQLVQSGPELKKPGETVKISCKASGYTFTDYSMHWVKQAPGKGLKWMGWINTETGEPTYADDFKGRFAFSLETSASTACLEINNLKNEDTATYFCSLTGYWGQGTSVTVSS
VL: DIQMTQSPASLSASVGETVTITCGASENIYGALNWYQRKQGKSPQVLIYGATNLADGMSSRFSGSGSGRQYSLKISSLHPDDVAMYYCQNVFSSPLTFGAGTKLELK
notes: Murine monoclonal antibody purified from hybridoma; also called WISE Loop 2 Mab (Ab-AF)
- binding result [12]: binds
- binding result [13]: binds
- binding result [14]: binds
- binding result [15]: binds

B5: Ab-AG (antibody, V domains shown)
VH: B4 VH with D62A, C80Y, E82Q, S97T
VL: B4 VL with V46L, Y49F, K74E, M85T, V91L, S93N, E105D
notes: Murine anti-WISE monoclonal antibody; also called WISE Loop 2 Mab (Ab-AG)
- binding result [16]: binds
- binding result [17]: binds
- binding result [18]: binds

B6: Ab-AI (antibody, V domains shown)
VH: QVTLKESGPGILQPSQTLSLTCSFSGFSLTTSGMGVSWIRQPSGGSLEWLAHIFWDDDKRYNPSLTSRLTISKDASRNQVFLKISSVDTADAATYYCARGGDYYSTGFGFDYWGQGTLVTVSA
VL: DIVVSQAPSSLAVSVGEKIIMSCKSSQSLLHSSNQRNYLAWYQQKPGQSPKLLISWASIRESGVPDRFTGSGSGTDFTLTISSVKTEDLAVYYCHQYYSYSTFGAGTKLELK
notes: Murine anti-WISE monoclonal antibody; also called WISE Loop 2 Mab (Ab-AI)
- binding result [19]: binds
- binding result [20]: binds
- binding result [21]: binds

B7: Ab-AC (antibody, V domains shown)
VH: B6 VH with G10E, S76P, S85T
VL: B6 VL with Q35R, V91I, S99T
notes: Murine monoclonal antibody purified from hybridoma; also called WISE Loop 2 Mab (Ab-AC)
- binding result [22]: binds
- binding result [23]: binds
- binding result [24]: binds
